Our source for the luminescence intensity (cooled CCD image of mice implanted with transfected COS-7 cells) values is patent US20070178464A1.

The experiment deals with Probe II: N-terminal domains of Rluc and DnaE with nuclear localization signal (expressed from pcRDn-NLS) (Renilla; blue-green algae, PCC6803 strain) (UniProt P27652). Briefly: cell-based or functional assay.
Sequence of Probe II: N-terminal domains of Rluc and DnaE with nuclear localization signal (expressed from pcRDn-NLS) (Renilla; blue-green algae, PCC6803 strain) (P27652 whole entry, the tested form may be a part): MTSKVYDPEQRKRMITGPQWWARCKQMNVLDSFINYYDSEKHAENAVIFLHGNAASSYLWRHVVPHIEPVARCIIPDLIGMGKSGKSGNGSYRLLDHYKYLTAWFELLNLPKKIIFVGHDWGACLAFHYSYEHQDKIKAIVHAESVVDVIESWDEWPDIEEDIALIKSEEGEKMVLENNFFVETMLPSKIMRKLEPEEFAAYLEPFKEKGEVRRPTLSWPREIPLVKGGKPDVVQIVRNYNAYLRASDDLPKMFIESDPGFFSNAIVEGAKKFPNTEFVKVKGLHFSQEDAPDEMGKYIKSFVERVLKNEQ

Substance “Probe I: AR connected to the C-terminal domains of RLuc and DnaE (expressed from pcDRc-AR) (from UniProt P27652 230-311; P10275 1-918)” showed a luminescence intensity (cooled CCD image of mice implanted with transfected COS-7 cells) of 20 times.
